# Reference: paper PMC7078208, “Interaction of SHP-2 SH2 domains with PD-1 ITSM induces PD-1 dimerization and SHP-2 activation” (Communications Biology, 2020)
# Square brackets hold non-standard residues; d marks the D form. Ends that are not written are not given here. pY = N[C@@H](Cc1ccc(OP(=O)(O)O)cc1)C(=O)O
# Columns and labels:
# [1] = target: t-SHP-2 (SHP-2 amino acids 1-225, tandem N-SH2 and C-SH2 domains) (UniProt Q06124); experiment: ITC; MicroCal ITC200; peptide (50-100 uM) titrated into t-SHP-2 (3-5 uM), 19 injections, 20 C; 50 mM HEPES pH 7.4, 100 mM NaCl, 5 mM TCEP
# SHP-2-WT = experiment: SHP-2 phosphatase activity, DiFMUP substrate; type: biochemical
# [2] = target: T1, t-SHP-2 (SHP-2 tandem SH2 domains, amino acids 1-225) (Homo sapiens, UniProt Q06124); experiment: Isothermal titration calorimetry of PD-1 phosphopeptides with t-SHP-2; type: binding; details: for Kd: ITC, MicroCal ITC200, peptide 50-100 µM titrated into t-SHP-2 3-5 µM, 19 injections, 20 °C, 50 mM HEPES pH 7.4, 100 mM NaCl, 5 mM TCEP
# T1 construct: made in house
# T1 sequence (Q06124 1-225): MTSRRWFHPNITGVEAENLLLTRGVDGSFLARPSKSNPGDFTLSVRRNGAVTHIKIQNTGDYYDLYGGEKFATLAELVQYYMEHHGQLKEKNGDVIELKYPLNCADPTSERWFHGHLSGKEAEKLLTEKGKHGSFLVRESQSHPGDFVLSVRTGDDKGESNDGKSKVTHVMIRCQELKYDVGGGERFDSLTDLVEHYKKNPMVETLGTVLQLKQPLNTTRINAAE
# Method: Isothermal titration calorimetry (ITC) was performed on a MicroCal ITC200 instrument (Malvern, Worcestershire, UK), using established methodology. Briefly, PD-1 phosphopeptides (PD-1cyto-pITIM-pITSM, PD-1cyto-ITIM-pITSM and PD-1cyto-pITIM-ITSM) and SHP-2 tandem-SH2 protein (t-SHP-2) were prepared in buffer containing 50 mM HEPES pH 7.4, 100 mM NaCl, 5 mM TCEP. Each peptide (50–100 µM) was titrated into a t-SHP-2 sample (3–5 µM) in a total of 19 injections at 20^ oC. We used reference power 6.0, initial delay 60 s and stirring speed 750 rpm. Injection volume was 0.4 µl for first injection and 2 µl for subsequent injections, injection duration was 0.8 s for first injection and 4 s for subsequent injections, with 150 s spacing and 5 s filter period. Reference cell was filled with sterile Milli-Q water. Controls of peptide titrations into buffer were run for baseline corrections. Data analysis was done using Origin 7.0 software.
# SHP-2 [3] = target: SHP-2 (UniProt Q06124); experiment: PD-1 IP, FLAG (SHP-2) blot; details: reference: PD-1 wild type; sites Y248
# SHP-2 [4] = target: SHP-2 (UniProt Q06124); experiment: PD-1 IP, SHP-2 blot; details: reference: PD-1 wild type; sites Y248
# [5] = target: SHP-2 wild-type full-length, purified recombinant protein (UniProt Q06124)
# PD1LgY223F = experiment: NanoBiT proximity assay (split luciferase) in HEK-293 cells; details: PD1SmY223F + PD1LgY223F + SHP2WT, Fyn (-) kinase inactive; parent: est. 100; read off a plot
# PD1LgY248F = experiment: as above; details: PD1SmY248F + PD1LgY248F + SHP2WT, Fyn (-) kinase inactive; parent: est. 100; read off a plot
# PD1LgDM = experiment: as above; details: PD1SmDM + PD1LgDM + SHP2WT, read off a plot
# SHP-2 1-225 [6] = target: SHP-2 1-225 (UniProt Q06124); experiment: native PAGE mobility shift; details: reference: PD-1cyto-pITIM-pITSM (pY223 + pY248)
# SHP-2 1-225 [7] = target: SHP-2 1-225 (UniProt Q06124); experiment: ITC; details: reference: PD-1cyto-pITIM-pITSM (pY223 + pY248); sites Y248
# SHP-2-full-length = target: T2, SHP-2-full-length (Homo sapiens, UniProt Q06124); experiment: SPR: SHP-2-full-length binding to immobilized PD-1 phosphopeptides; details: identical conditions as for ITSM-pY248 surface
# T2 construct: glutathione-S-transferase (GST) fusions to SHP-2 wild-type full-length (SHP-2-WT-FL) using the pGEX 4T-3 vector; GST (N, cleaved yes); made in house; host or cells: E. coli BL21(D3)LysS
# T2 sequence (Q06124 1-593): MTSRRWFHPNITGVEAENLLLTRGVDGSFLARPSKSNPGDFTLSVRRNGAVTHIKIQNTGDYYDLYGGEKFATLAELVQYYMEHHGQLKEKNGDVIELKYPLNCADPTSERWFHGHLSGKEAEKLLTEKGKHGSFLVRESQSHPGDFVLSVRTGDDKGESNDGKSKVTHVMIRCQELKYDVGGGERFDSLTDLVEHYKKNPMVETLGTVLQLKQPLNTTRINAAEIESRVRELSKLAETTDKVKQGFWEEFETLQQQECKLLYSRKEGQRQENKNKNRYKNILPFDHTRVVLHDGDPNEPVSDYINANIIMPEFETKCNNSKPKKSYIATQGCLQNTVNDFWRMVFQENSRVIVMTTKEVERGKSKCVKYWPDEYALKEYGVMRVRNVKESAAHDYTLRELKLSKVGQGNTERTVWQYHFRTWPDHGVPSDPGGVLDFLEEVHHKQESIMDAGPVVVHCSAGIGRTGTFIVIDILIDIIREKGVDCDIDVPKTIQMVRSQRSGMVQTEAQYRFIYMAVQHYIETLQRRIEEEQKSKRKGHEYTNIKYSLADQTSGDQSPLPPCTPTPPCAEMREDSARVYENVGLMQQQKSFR
compound,measurement,setting,value
Monophosphoryl peptide of native sequence of PD-1 cytoplasmic tail (PD-1cyto-ITIM-pITSM),stoichiometry N (peptide per t-SHP-2),[1],2
"VD(pY)GELDFQ-Ahx4- QTE(pY)ATIVFPS [pITIM-pITSM, bisphosphoryl ITIM-ITSM peptide with 4-Ahx spacer]",peptide concentration at which catalytic activity of SHP-2 is increased,"SHP-2-WT; DiFMUP substrate, compared to pIRSY727 and pIRSY1172, Fig. 5a",above 1 µM
CC[C@H](C)[C@H](NC(=O)[C@@H](NC(=O)[C@H](C)NC(=O)[C@H](Cc1ccc(OP(=O)(O)O)cc1)NC(=O)[C@H](CCC(=O)O)NC(=O)[C@@H](NC(=O)[C@H](CCC(N)=O)NC(=O)[C@H](CCC(=O)O)NC(=O)[C@@H]1CCCN1C(=O)[C@@H](NC(=O)[C@H](CS)NC(=O)[C@@H]1CCCN1C(=O)[C@@H](NC(=O)[C@@H]1CCCN1C(=O)[C@@H]1CCCN1C(=O)[C@H](CCC(=O)O)NC(=O)[C@@H]1CCCN1C(=O)[C@@H](NC(=O)[C@H](CCCCN)NC(=O)[C@H](CCC(=O)O)NC(=O)[C@H](CCCNC(=N)N)NC(=O)[C@H](Cc1c[nH]c2ccccc12)NC(=O)[C@H](CCC(N)=O)NC(=O)[C@H](Cc1ccccc1)NC(=O)[C@H](CC(=O)O)NC(=O)[C@H](CC(C)C)NC(=O)[C@H](CCC(=O)O)NC(=O)CNC(=O)[C@H](Cc1ccc(O)cc1)NC(=O)[C@H](CC(=O)O)NC(=O)[C@@H](NC(=O)[C@H](CO)NC(=O)[C@H](Cc1ccccc1)NC(=O)[C@@H](NC(=O)[C@@H]1CCCN1C(=O)[C@@H](NC(=O)[C@H](C)NC(=O)[C@@H](N)CO)C(C)C)C(C)C)C(C)C)[C@@H](C)O)C(C)C)C(C)C)[C@@H](C)O)[C@@H](C)O)C(=O)N[C@H](C(=O)N[C@@H](Cc1ccccc1)C(=O)N1CCC[C@H]1C(=O)N[C@@H](CO)C(=O)O)C(C)C [PD-1cyto-ITIM-pITSM],Kd,[2],775 nM
"TE(pY)ATIVFP-Ahx10-QTE(pY)ATIVFPS [bpITSM-Ahx10, bisphosphoryl ITSM peptide with 10-Ahx spacer]",catalytic activity of SHP-2 compared to the negative control pIRSY727,"SHP-2-WT; 3x lower enzyme concentration (0.5 µg/ml SHP-2-WT), Fig. 5e",caused a higher increase in SHP-2 activation
SAVPVFSVD(pY)GELDFQWREKTPEPPVPCVPEQTEYATIVFPS (SAVPVFSVD[pY]GELDFQWREKTPEPPVPCVPEQTEYATIVFPS) [PD-1cyto-pITIM-ITSM],peptide: t-SHP-2 interaction by ITC,[2]; same conditions,not detectable
PD-1 (from UniProt Q15116) PD-1 Y248F,binding against the reference,SHP-2 [3],lost
same,binding against the reference,SHP-2 [4],lost
Bisphosphoryl ITSM peptide pITSM-Ahx4-pITSM (bpITSM),potency in inducing SHP-2 phosphatase activity relative to the bisphosphoryl peptide bpIRS,[5],3 fold
PD-1 NanoBiT fusions (PD-1-LgBiT and PD-1-SmBiT) in HEK-293 cells with kinase-inactive Fyn (from UniProt Q15116) Y223F,response,PD1LgY223F,90 RLU
PD-1 NanoBiT fusions (PD-1-LgBiT and PD-1-SmBiT) in HEK-293 cells with kinase-inactive Fyn (from UniProt Q15116) Y248F,response,PD1LgY248F,80 RLU
"VD(pY)GELDFQ-Ahx4-SVD(pY)GELDFQW [bpITIM, bisphosphoryl ITIM-ITIM peptide with 4-Ahx spacer]",increase in the catalytic activity of SHP-2 compared to negative control pIRSY727,"SHP-2-WT; DiFMUP substrate, Fig. 5a",did not induce an increase
PD-1 NanoBiT fusions (PD-1-LgBiT and PD-1-SmBiT) in HEK-293 cells with kinase-active Fyn (from UniProt Q15116) DM,response,"PD1LgDM; Fyn (+) kinase active, parent: est. 255",90 RLU
PD-1 cytoplasmic tail peptide (from UniProt Q15116) PD-1cyto-pITIM-ITSM (pY223 only),binding against the reference,SHP-2 1-225 [6]; sites Y248,lost
same,KD,SHP-2 1-225 [7],lost; reference 0.0159
PD-1 NanoBiT fusions (PD-1-LgBiT and PD-1-SmBiT) in HEK-293 cells with kinase-inactive Fyn (from UniProt Q15116) DM,response,"PD1LgDM; Fyn (-) kinase inactive, parent: est. 100",88 RLU
PD-1 cytoplasmic tail peptide (from UniProt Q15116) PD-1cyto-ITIM-pITSM (pY248 only),binding against the reference,SHP-2 1-225 [6]; sites Y223,same
"KEDPSAVPVFSVD[pY]GELDFQWRE [pITIM, monophosphorylated human PD-1 ITIM-pY223 phosphopeptide]",increase in the catalytic activity of SHP-2 compared to negative control pIRSY727,"SHP-2-WT; DiFMUP substrate, Fig. 5a",did not induce an increase
same,effect on SHP-2 activation induced by bpITSM (competition),"SHP-2-WT; bpITSM 0.01 µM with increasing amounts of monophosphorylated peptide, Fig. 5d",only when added at very high molar concentrations (1000x excess of bpITSM)
same,specific interaction of SHP-2 protein with peptide-coated surface,SHP-2-full-length,no specific interaction
CC[C@H](C)[C@H](NC(=O)[C@@H](NC(=O)[C@H](C)NC(=O)[C@H](Cc1ccc(OP(=O)(O)O)cc1)NC(=O)[C@H](CCC(=O)O)NC(=O)[C@@H](NC(=O)[C@H](CCC(N)=O)NC(=O)[C@H](CCC(=O)O)NC(=O)[C@@H]1CCCN1C(=O)[C@@H](NC(=O)[C@H](CS)NC(=O)[C@@H]1CCCN1C(=O)[C@@H](NC(=O)[C@@H]1CCCN1C(=O)[C@@H]1CCCN1C(=O)[C@H](CCC(=O)O)NC(=O)[C@@H]1CCCN1C(=O)[C@@H](NC(=O)[C@H](CCCCN)NC(=O)[C@H](CCC(=O)O)NC(=O)[C@H](CCCNC(=N)N)NC(=O)[C@H](Cc1c[nH]c2ccccc12)NC(=O)[C@H](CCC(N)=O)NC(=O)[C@H](Cc1ccccc1)NC(=O)[C@H](CC(=O)O)NC(=O)[C@H](CC(C)C)NC(=O)[C@H](CCC(=O)O)NC(=O)CNC(=O)[C@H](Cc1ccc(OP(=O)(O)O)cc1)NC(=O)[C@H](CC(=O)O)NC(=O)[C@@H](NC(=O)[C@H](CO)NC(=O)[C@H](Cc1ccccc1)NC(=O)[C@@H](NC(=O)[C@@H]1CCCN1C(=O)[C@@H](NC(=O)[C@H](C)NC(=O)[C@@H](N)CO)C(C)C)C(C)C)C(C)C)[C@@H](C)O)C(C)C)C(C)C)[C@@H](C)O)[C@@H](C)O)C(=O)N[C@H](C(=O)N[C@@H](Cc1ccccc1)C(=O)N1CCC[C@H]1C(=O)N[C@@H](CO)C(=O)O)C(C)C [PD-1cyto-pITIM-pITSM],Kd,[2],15.9 nM
Bisphosphoryl peptide of native sequence of PD-1 cytoplasmic tail (PD-1cyto-pITIM-pITSM),stoichiometry N (peptide per t-SHP-2),[1],1
